This is an account of results in a protein production outcome set (Wang et al. 2014).

A short description of the series: label from the status in PepcDB records.
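Also: failed if final PepcDB status was selected cloned or expressed and not failed if soluble or beyond.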

Take “MEKLSAIKKPDINVADAWEQYWNKTLVNSTPVLWDANVERAVVVDLPRFELLFNPELPLIDFACGNGTQTKFLSQFFPRVIGLDVSKSALEIAAKENTAANISYRLLDGLVPEQAAQIHSEIGDANIYMRTGFHHIPVEKRELLGQSLRILLGKQGAMYLIELGTGCIDFFNSLLEKYGQLPYELLLVMEHGIRPGIFTAEDIELYFPDFEILSQGEGLFQSIHKLPDGNYATPPAFWAVIKHR”: the protein production entry is “not failed”. As for “MEKLVLGIIGIFFVISGFDYINNNKLGLGDKFKEGMISMGSIAISMVGIYSLSPLIGEGIGFLLTPISNFLGIDSSIFPSMFLAVDMGALGIAESLSSNIHMYWISGVIIASTLGATISFSIPLALGIIEEKYLEDLTTGLLYGIMTLPIAPIVAGLFLGVDIKLLLFNILPLIIFAILLAVFMNKFKDTTVKFFIKLGKLIQLVSILGLLVLGFLSIIGIKPIGSILPIDEALSVVGKIAIFLGGAYPLINFITEKFSKVLSKIGEKINIDEFSIAAFLGTLASNIILFQSFNKMSSKGRIALTAFSVSGAFVIGGQLGFVSLKTPEIINIYIASKLIAGITAMVVALIVHRKTEENLNDESQSEENIPVLES”, the protein production result was “failed”. On to “MEKPIKTQWQLLMDNRNRFFWLLQAGGWIGYALVNYIGSLMHEMRDIYTLIIILGAYAGFLSTIPLRYLYRRIWEFPPALMVLIAIVVSYVTAVAWAIVDNATYWEIYKFGFRPDSPFFYLKNSLAKFYIILSWSGLYFGIKYYQMLQEEKQKALLASSMAHQAQLKMLRYQLNPHFLFNTLNAISTLILLKENEKANLMVNKLSHFLRFSLDNEPIKKVTLEKEVDALLLYLDIEKVRFDEQLEIDIHLSDETKNALVPSLICQPLIENSIKYAISNVEGVGKIRVRSWSEKENLILEVCDNGPKIETDPEKLFRKDGVGLNNTRQRLKSLYGKQYRFEMLKGAESGLCVRITIPMEMLESQR”, for which the protein production result is “failed”. On to “MEKRFYILTIVVEDREKAYRQVNELLHNFSEDILLRVGYPVREENMAIIFLVLKTDNDTIGALSGKLGQISGVRVKTVPLKR”, for which the protein production result is “not failed”. On to “MEKYFGNAYRGDPGVPHADADRFVNIWIGSAAFSVLTWVNPYMWQLSNQFKYFSLSLSLELSNSNLGTFGFSCLISELGFLFMCFCSSLNCSGENYVLILLV”, for which the protein production result is recorded as “failed”. Turning to “MEKYILSIDQGTTSSRAILFNQKGEIAGVAQREFKQYFPQSGWVEHDANEIWTSVLAVMTEVINENDVRADQIAGIGITNQRETTVVWDKHTGRPIYHAIVWQSRQTQSICSELKQQGYEQTFRDKTGLLLDPYFAGTKVKWILDNVEGAREKAENGDLLFGTIDTWLVWKLSGKAAHITDYSNASRTLMFNIHDLEWDDELLELLTVPKNMLPEVKASSEVYGKTIDYHFYGQEVPIAGVAGDQQAALFGQACFERGDVKNTYGTGGFMLMNTGDKAVKSESGLLTTIAYGIDGKVNYALEGSIFVSGSAIQWLRDGLRMINSAPQSESYATRVDSTEGVYVVPAFVGLGTPYWDSEARGAIFGLTRGTEKEHFIRATLESLCYQTRDVMEAMSKDSGIDVQSLRVDGGAVKNNFIMQFQADIVNTSVERPEIQETTALGAAFLAGLAVGFWESKDDIAKNWKLEEKFDPKMDEGEREKLYRGWKKAVEATQVFKTE”, the protein production result is given as “failed”. As for “MELAVGNLSEGNASCPEPPAPEPGPLFGIGVENFVTLVVFGLIFALGVLGNSLVITVLARSKPGKPRSTTNLFILNLSIADLAYLLFCIPFQATVYALPTWVLGAFICKFIHYFFTVSMLVSIFTLAAMSVDRYVAIVHSRRSSSLRVSRNALLGVGCIWALSIAMASPVAYHQGLFHPRASNQTFCWEQWPDPRHKKAYVVCTFVFGYLLPLLLICFCYAKVLNHLHKKLKNMSKKSEASKKKTAQTVLVVVVVFGISWLPHHIIHLWAEFGVFPLTPASFLFRITAHCLAYSNSSVNPIIYAFLSENFRKAYKQVFKCHIRKDSHLSDTKENKSRIDTPPSTNCTHV”, the protein production result is “failed”. For “MELDMGKVITAKRKEKSWTQEQLAQAVGVSTPAVSKWETGATYPDITLLPPIARALNTTVDELFSYQNELSDNDVSGFTQKATSLYEAEGFDAGWNYCQKLLQEFPNSIPLKFYLGNLFQSFMIMKTDLGKEDIQSCYRQAAILYEEVLLSGYPKFTYHATLILVGFYTMLNELDRAEELLDSLPKLKTDPDFLYPSIYALRGKNEEAMKLTQENIRRYISRVSHGLSLLGAFAREQEDMDKACTLAKMNLEITKLLGISREIAYADMIKIMVARGDKEAALTYLEEYTQHILELSYDYAKSPVFNRVTEKFQDPSYVKKVLAQSILIDKEYTPLKEEPRYLQIVHRLRQVIDTQTHTFRE”, the protein production entry is “failed”. In the case of “MELENIVANTVLLKAREGGGGNRKGKSKKWRQMLQFPHISQCEELRLSLERDYHSLCERQPIGRLLFREFCATRPELSRCVAFLDGVAEYEVTPDDKRKACGRQLTQNFLSHTGPDLIPEVPRQLVTNCTQRLEQGPCKDLFQELTRLTHEYLSVAPFADYLDSIYFNRFLQWKWLERQPVTKNTFRQYRVLGKGGFGEVCACQVRATGKMYACKKLEKKRIKKRKGEAMALNEKQILEKVNSRFVVSLAYAYETKDALCLVLTLMNGGDLKFHIYHMGQAGFPEARAVFYAAEICCGLEDLHRERIVYRDLKPENILLDDHGHIRISDLGLAVHVPEGQTIKGRVGTVGYMAPEVVKNERYTFSPDWWALGCLLYEMIAGQSPFQQRKKKIKREEVERLVKEVPEEYSERFSPQARSLCSQLLCKDPAERLGCRGGSAREVKEHPLFKKLNFKRLGAGMLEPPFKPDPQAIYCKDVLDIEQFSTVKGVELEPTDQDFYQKFATGSVPIPWQNEMVETECFQELNVFGLDGSVPPDLDWKGQPPAPPKKGLLQRLFSRQDCCGNCSDSEEELPTRL” it was “failed”; in that of “MELKILVTGGNVFVPGRLNAHFSTVVYLEHKDRRIIIDPGNLSSMDELEEKFSELGISPDDITDVLFTHVHLDHIFNSVLFENATFYVHEVYKTKNYLSFGTIVGRIYSKVISSWKNVVLLKGEESLFDEKVKVFHTPWHAREHLSFLLDTENAGRVLITGDITPNRLSYYDIIKGYGSVQVKNFLDRVGRIDLLVFPHDAPLKPEVKK”, “not failed”; in that of “MELLFIIAAFVMGFIALKINLPPLVGFLLAGFGLHALGFQSNDALETFADLGVTLLLFSIGLKLDIKTLLAKEIWLGATLHNVFSTLFFTFALLGLKLLGINMLANIETAQLVLFGFALSFSSTVFAVKALQEKGEMNATYGTLAIGILVMQDIFAVVFLTASTGKIPEITALALFALPLFRPLFFKLLDWAGHGEMLVLYGIFLALVAGAGTFELVGMKPDLGALILGMLLAGHAKASELSKSLFNLKEVLLICFFLNIGLSAAPTISGLGLALILILLLPVKGFLYFIIINKFKFRVRTSLLASLTLFNYSEFGLIVGGLAFKMGWLPADTLVAIAIAVSISFIISAPLNNFGHTIYQRSRHWLKEHTAERLNPMDKLINPGRAQILILGMGRIGSGAYDELKEKYGDIILGIELREESAKQHQELGRNVISGDATDPDFWERILSTSHVKLVLLAMPNHQGNQFALEQLQTRNYQGQTAAIAAYNDQIDGLIEQGVDAAFNIYHEAGSGFARHVSEQLDPQFNHHKDYITH”, “failed”. As to “MELNNTIATPLYKQLEKKLQQEIDSGKRPAGSRLPTENELSKAYNVSRVTVRKALAELSESGYLERKSGKGTFVAEKKLERGITNGVLGFSEMCKMMNAIPGAKIIKIALEEPSEKDIQKMSLNKDEKVLVLERVRYANGKPVLLELNKFPESFSFLFEENLTDASLYDILEQHNIILDHSRKTLDIVFADTKEAKTLGISRGYPLLRINSIIHNADNTITNLCQQLCIGDKFTFII”, the protein production result is “failed”.

Take “MELSAIGEQVFAVESIRKKRVRKGKVEYLVKWKGWPPKYSTWEPEEHILDPRLVMAYEEKEERDRASGYRKRGPKPKRLLLQRLYSMDLRSSHKAKGKEKLCFSLTCPLGSGSPEGVVKAGAPELVDKGPLVPTLPFPLRKPRKAHKYLRLSRKKFPPRGPNLESHSHRRELFLQEPPAPDVLQAAGEWEPAAQPPEEEADADLAEGPPPWTPALPSSEVTVTDITANSITVTFREAQAAEGFFRDRSGKF”: the protein production result was “failed”. For “MELVDRYIAAVQRELPEDKRQEIGRELKANICDQLDALAEHAELTESQIADVLQQMGHPAQVAQQFVPPTPIVASEDISLFKHTLVMVLGVLFVLQVVSGATQWLGSTEGSLFGFIRHIASGFIVDACFAFTAILLSFWSISAQGKVMFGGRCQHWQPQNLPNVGPDWQHISLSDVFSDLATYLFLLLLIWNNLWMSADQLAARSVIFSANAQQLLQWFSPVILLSLLNTLWQLLRRLWTAPLLLANAGVNLAYALCLVFLAFSSPLLQYQGGEVEGIFTLQQLDTWLGHALLVTALFPGYECIRDMLRWRKLTAH”, the protein production result is given as “failed”. For the sequence “MELVVGRVVKSHGVTGEVVVEIRTDDPADRFAPGTRLRAKGPFDGGAEGSAVSYVIESVRQHGGRLLVRLAGVADRDAADALRGSLFVIDADDLPPIDEPDTYYDHQLVGLMVQTATGEGVGVVTEVVHTAAGELLAVKRDSDEVLVPFVRAIVTSVSLDDGIVEIDPPHGLLNLE”, the protein production result is “failed”. Turning to “MEMKTKKAVLMSSLALSIIAFLLALILMQPNSAGYPEVPAVPTYVLFGLSAASFAVFIYEYFTATRT”, the protein production result is reported as “failed”. In the case of “MEMRKIGLIGGMSFESSAVYYRLVNEAVRRRRGKLHSAEVLLHSVDFQRIVDLQRAGHWDDAALLLSDVARGLVAGGADCILICSNTMHLIADAVHASVDVPLINIIDETALRLKAAGSRKPLLLATRYTMEQGFYAERMKTHDIDLMVPDADGRTLTHNVIFDELCAGQVLNASRSAVIGLIEKAKAEGADAVILGCTEICLLLDPADLPLPGFDSTAIHAEAAVEFSLRDRQ” it was “failed”; in that of “MEMTNAQRLILSNQYKMMTMLDPANAERYRRLQTIIERGYGLQMRELDREFGELKEETCRTIIDIMEMYHALHVSWSNLQDQQSIDERRVTFLGFDAATEARYLGYVRFMVNVEGRYTHFDAGTHGFNAQTPMWEKYQRMLNVWHACPRQYHLSANEINQIINA”, “not failed”.

Regarding “MENEGASTVCPLDPGSPLFLSGDGFEPVGVLFPHAVFHFPSKEKKEAYDFMDKVVDKHRRLCDERQRLGLKNESEVDVKNEGSTSNPEPAVKEPVPEPLP”, the protein production result is recorded as “not failed”. In the case of “MENFFNQFFESIGEDKNREGLKETPKRVQELWKFLYKGYKEDPRVALKSAYFQGVCDEMIVAQNIEFYSTCEHHLLPFLGNISVGYIPKEKIVGISAIAKLIEIYSRRLQIQERLTIQIAETFDEIIEPRGVIVVCEAKHLCMSMQGVQKQNAIIKTSVLRGLFKKDSKTRAEFMQLLKS” it was “failed”; in that of “MENFVFHNPTKIVFGRGTIPKIGEEIKNAGIRKVLFLYGGGSIKKNGVYDQVVDSLKKHGIEWVEVSGVKPNPVLSKVHEAVEVAKKEKVEAVLGVGGGSVVDSAKAVAAGALYEGDIWDAFIGKYQIEKALPIFDVLTISATGTEMNGNAVITNEKTKEKYGVSSKALYPKVSIIDPSVQFTLPKEQTVYGAVDAISHILEYYFDGSSPEISNEIAEGTIRTIMKMTERLIEKPDDYEARANLAWSATIALNGTMAVGRRGGEWACHRIEHSLSALYDIAHGAGLAIVFPAWMKYVYRKNPAQFERFAKKIFGFEGEGEELILKGIEAFKNWLKKVGAPVSLKDAGIPEEDIDKIVDNVMLLVEKNLKPKGASLGRIMVLEREDVREILKLAAK”, “not failed”.
